{
  "source": "patent US7338932",
  "key": {"[1]": {"target": "EA2 acceptor peptide (…) (rat)", "assay": "cell-based or functional assay"}, "[2]": {"tested_on": "MUC7 acceptor peptide (Ac-CPPTPSATTPAPPSSSAPPETTAA)"}, "[3]": {"tested_on": "EA2 acceptor peptide (PTTDSTTPAPTTK)"}, "[4]": {"target": "MUC2 acceptor peptide (…) (human)", "sequence (peptide, as listed by the source)": "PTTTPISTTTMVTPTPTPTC", "assay": "cell-based or functional assay"}},
  "data": [
    {"substance": "human recombinant GalNAc-T3 (enzyme source of Example 6) (from UniProt Q14435 52-633)", "values": [
      {"measurement": "galactosyltransferase activity with UDP-Gal donor substrate, no inhibitor", "setting": "[1]", "result": 6.3, "unit": "nmol/min/mL"}
    ]},
    {"substance": "purified human recombinant GalNAc-T2 (enzyme source of Examples 1-6)", "values": [
      {"measurement": "GalNAc-T2 activity with UDP-Gal", "setting": "[2]", "result": "Muc7, 13 nmol/min/ml"},
      {"measurement": "GalNAc-T2 activity with UDP-Gal", "setting": "[3]", "result": "EA2, 1.5 nmol/min/ml"}
    ]},
    {"substance": "purified human recombinant GalNAc-T2 (enzyme source of Examples 1-6) (from UniProt Q10471 52-571)", "values": [
      {"measurement": "galactosyltransferase activity with UDP-Gal donor substrate, no inhibitor", "setting": "[4]", "result": 90, "unit": "nmol/min/mL"}
    ]}
  ]
}
